Data: patent US20250051821
Substitutions are numbered along the chain they refer to.

T1: IFF05588
T1 chain: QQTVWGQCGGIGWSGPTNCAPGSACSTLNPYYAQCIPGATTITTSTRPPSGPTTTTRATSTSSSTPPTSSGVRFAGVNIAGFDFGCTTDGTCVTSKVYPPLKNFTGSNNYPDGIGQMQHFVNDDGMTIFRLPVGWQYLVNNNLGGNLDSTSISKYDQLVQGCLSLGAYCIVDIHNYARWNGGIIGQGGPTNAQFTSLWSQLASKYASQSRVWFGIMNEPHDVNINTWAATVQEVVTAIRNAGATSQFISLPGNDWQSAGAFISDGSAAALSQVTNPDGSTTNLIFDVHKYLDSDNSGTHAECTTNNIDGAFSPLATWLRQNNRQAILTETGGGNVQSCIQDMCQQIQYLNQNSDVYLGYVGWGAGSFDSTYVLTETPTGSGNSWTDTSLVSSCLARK

B1: IFF21343 (protein)
chain: NLDKPVIQPNFPGNGLASLGQGLMDHLAPTHSTWDDWGAGWIPQDCKSMAQGAGFSANDIIPFNIHYDDCAQSWTFCRHKNSPLSELQILDIFGRLPVRMRSFVRHLVFVPGNKSAGSNGDNVLMVGAVDVTVFAHEIGHSLDSHAFDPSYGVPFSTGSVWTSNYNLDSAVPDPYAQTSQQENFAQETVVSLYDKVVPGGIGTIQPNWKAIFHQYATLQGYIGNVIIPGGTCTHRLTDSPPVTMSSAKLRRGLGPKPNVSLSPKVKEIESIPMESSITMTSFDEHGKPNGTYVVHLK
B2: IFF21348 (protein)
chain: TLNKPVIQPNFPGGGLASLGPGLLNNLAITSSTSDVWGAGWIPADCKSLVQGAGLSPFDVIPFNIHLSDCSQTWTFCRHKNSPLSQTDIINLFARVPVRMRDFIRHFVFIPGATSAGSNGDNTLMVGNVDITVFLHEIGHSLDSHAFDPSYGVPFSTGNVWVSNYNLDSAVTDSYAQTSQQENFAQETVVSVYDKVVPGGIGTIQPNWQAIFHQYATLEGYIGNTIIPGGTCVNRLTDSQPVPMGNSAKFRRTMGPKPTVSLSPDVKEIKAIPMSDSITMTSFDEFGNVNGTYVIQL
B3: IFF21360 (protein)
chain: RLDKPVIKPPFPNGGGLGSLGPDLMSSLPIAAHTTSDWDSDHLPRDCKRLAQSAGFSPLDVDAFNIRFDDCKQQPWVFCRHKDAPLSKSNMTELFGRLPVRMRQYIRHIIALPGQRSAGSAGDNIQMNGDCEITVFIHETGHSLDSHAFDPKHGVPFSNSPVWKDAYDKDTAVTDDYAQTSQQENFAQETVVAVYDKNVKGGGIGKIQPNAQAIRNAYTTLEKYIGDIIIPGGECTHRLENSPAVPKVDSARTRLVAKSEPVGEGLTRIEPIPMGPITLARY
B4: IFF21333 (protein)
chain: RLDKPIINPTFPGGGLDSLAQGLLDHLAPTQSTHDNWGAGYIPEDCKNLAKSNGFSPFDITPFNIHYSDCNDVWIFCRHKDSPLSQIDMIDLFGRMPVHMREYIRHVIALPGNKSAGSSGDNIQMNGAVGITVFVHETGHSLDSHGFDPKYGVPFSNSKTWLDNYNMDTAVCDSYAQSSQQENLAQETVVGLYDKVVPGGVGNIQPNWKAIFHQYATVQGYLGDILTPGGTCRHRLANSKPVPMGDSAKFRRDLGPAPDVSLSSDVIEIESIPMGSSIRITEFDEAGNPIGSKNVSLVM
B5: IFF21332 (protein)
chain: ALNKPIINPQFPNGGLGSLGPGLMQHLQPAKRTWDKWGPGWIPEDCKNLAKSNNFSPFDITPFNIHYEDCPDSWVFCRHKDSPLSETAMIDMFGRMPVKMRSYIRHIIALPGTRSAGSAGDNIQMNGDCEITVFVHETGHSLDSHAFDPKYGAPFSNSKVWLDNYNQDSAVCDGYAQSSQQENLAQETVVGLFDKVVPGGVGTIQPNWKAIFHQYATVQGYLGDQILPGGTCSHRLTNSKPVPMGDSKKSRRGLGPAPDVSLSAHVTEIEPIAMGDSIVLTQYNDGGDAISKREVTLN
B6: IFF21350 (protein)
chain: NLNKPVIQPNFPGNGLASLGQGILDHLAPTQSTWDDWGAGWIPQDCKSLAQGAGLSPNDIIPFNIHYADCAQTWTFCRHKNSPLSEVNIIDLFGRLPVRMRQFVRHLVFIPGNKSAGSNGDNVLMVGPVDITVFAHEIGHSLDSHAFDPSYGVPFSTGNVWVSNYNLDSAVPDPYAQSSQQENFAQHTVISIYDKAVPGGIGTIQPNWQAIFHQYATLEGYIGDIIIPGGTCTHRLTDSPPVTMASKRRALGPKPKVALSPEVEEIEAIPMKNTITMTSFDEAGKPNGSYVINL
B7: IFF21354 (protein)
chain: RLDKPVIKPPFPNGGLGSLGPDLMSSLKVASHTTDDWDKNHLPRDCKSLAQNAGFSPLDVSAFNIHYDDCKSQPWVFCRHKDSPLSKKDMTELFGRMPVRMRQFIRHIIALPGQRSAGSSGDNIQMNGDVEITVFIHETGHSLDSHAFDPKLGAPFSNGKAWTDAYNKDSAVTDDYAQTSQQENFAQETVVSVYDKNVKGGIGKIQPNAQAIRNAYTTLEKYIGNIIIPGGVCTHRLENSPSVPKADSARTRLVPKSEPVGEGLTRIEPIAMGPITPASY
B8: IFF21334 (protein)
chain: ILDKPVIQPNFPGNGLASLGQGLMDNLSPTHSTWDDWGAGWIPQDCKSLVEGAGFSASDVIPFNIHYDDCAQTWTFCRHKDSPLSEITILDIFGRLPVRMRSFVRHLVFIPGNKSAGSSGDNVLMVGAVDVTVFAHEIGHSLDSHAFDPSYGVPFSTGNVWISNYNLDSAVTDPYAQTSQQENFAQETVVSLYDKVVPGGIGTIQPNWQAIYHQYATLEGYIGDVIIPGGTCTHRLTDSPPVQMSSSSKLRRALGPKPHVALSPEVEEIEAIPMKSSITMTSFDAAGKPNGTYVINL
B9: IFF21359 (protein)
chain: TLDKPVIKPPFPNGGLGSLGPDLMSSLPIAAHTTTDWDADHLPRDCKTLAQGAGFSPLDVSAFDIHYDDCKAQPWVFCRHKDSPLSKTDMTELFGRLPVRMRQFIRHIIALPGQRSAGSAGDNIQMNGDCEITVFIHETGHSLDSHAFDPKLGVPFSNGKAWTDAYHKDTAVTDDYGRTSQQENFAQETVVSVYDKNVEGGIGKIQPNAQAIRNAYTTLETYIGNIIIPGGECTHRLENSPSVPKADSARTRLVARAEPVGEGLTRIEPVPFGPILSVRY
B10: IFF21351 (protein)
chain: ALNKPVIQPNFPGNGLASLGQGIMQHLTPTQSTWDDWGAGWIPQDCKSIVQGAGFSPNDIIPFNIHYTDCGQTWTFCRHKNSPLSEINIIDIFGRLPVRMRQFVRHLVFVPGNKSAGSNGDNILMVGPVDVTVFIHEIGHSLDSHAFDPSYGVPFSTGNVWVSNYNLDSAVPDPYAQSSQQENFAQHTVVSIFDKVVPGGIGTIQPNWQAIFHQYATLEGYIGDTIIPGGTCTHRLTDSPPVTMASKRRGLGPKPKVALSPEVEEIESIPMKSTFKMTSFDEAGKPSGNYVINL
B11: IFF21342 (protein)
chain: NLNKPVITPNFPGNGLASLGQGLMDHLAPTHSTWDDWGAGWIPADCKSMVQGAGFSPNDIIPFNIHYDDCAQSWTFCRHKNSPLSEIQILDIFGRLPVRMRQFVRHLVFVPGNKSAGSNGDNVLMVGDVDVTVFAHEIGHSLDSHAFDPSYGVPFSTGNVWVSNYNLDSAVPDPYAQSSQQENFAQETVVSLYDKVVPGGIGTIQPNWQAIFHQYATLEGYIGNVIIPGGTCTHRLTDSPPVTMSGSKKSRRALGPKPKVSLSPKVKEIEAIPMESSITMTSFDEHGRPNGTYVINL
B12: IFF21341 (protein)
chain: B11 chain with Q21P, D25N, H26N, A44S, P240A, R288K, I295V, N296H
B13: IFF21338 (protein)
chain: B11 chain with Q21P, D25N, H26N, A44S, S73T, E187Q, P240A, K265E, R288K, N296H
B14: IFF21379 (protein)
chain: QLDKPALTSNLDYLLEGNTNNLPRNGGPYWGKWADGLMPADCKSIAESQGLNPTDFEVWDIFYNDCQDGWSFCRHKDSSDSFETLVETFGRVPVRMRSWVRHILTIPGPNWAFNSNGNIALSGTTSSNLDVALHETAHSLDLLGAYGNGALSSMQEWLNAYNRDSHVPDEYARSNQVENVAQNTVVAIYDKVVPGGFPGIQPNYQRIQNQYTLVQAKAGNQILPGGTCDRHLENSDTVPMSGLSLAYKLDSEKSRGVWHDSAFKGTYMNIVKEFTPFNTQEFHH

Target: T1, IFF05588
In the case of B1, the Relative late peak area (centered, scaled, averaged over 5, 10 and 15 min) is reported as 0.33 and the Relative late peak area (centered, scaled, averaged over doses, 24 h; sample diluted 2-fold) is reported as 0.8.
For B2, the Relative late peak area (centered, scaled, averaged over 5, 10 and 15 min) was 1.4 and the Relative late peak area (centered, scaled, averaged over doses, 24 h; sample diluted 10-fold) was 0.68.
B3 was tested, and the Relative late peak area (centered, scaled, averaged over 5, 10 and 15 min) was -0.58, the Relative late peak area (centered, scaled, averaged over doses, 24 h; sample diluted 1-fold) was 0.62 and the Relative late peak area (reverse phase chromatography, 24 h) was 0.66.
For B4, the Relative late peak area (centered, scaled, averaged over 5, 10 and 15 min) was 0.26, the Relative late peak area (centered, scaled, averaged over doses, 24 h; sample diluted 2-fold) was 0.69 and the Relative late peak area (reverse phase chromatography, 24 h) was 0.59.
In the case of B5, the Relative late peak area (centered, scaled, averaged over 5, 10 and 15 min) is reported as 0.3, the Relative late peak area (centered, scaled, averaged over doses, 24 h; sample diluted 2-fold) is reported as 0.8 and the Relative late peak area (reverse phase chromatography, 24 h) is reported as 0.65.
Work on B6 yielded a Relative late peak area (centered, scaled, averaged over 5, 10 and 15 min) of 1.55, a Relative late peak area (centered, scaled, averaged over doses, 24 h; sample diluted 10-fold) of 1.06 and a Relative late peak area (reverse phase chromatography, 24 h) of 0.61.
B7 was tested, and the Relative late peak area (centered, scaled, averaged over 5, 10 and 15 min) was 1.34, the Relative late peak area (centered, scaled, averaged over doses, 24 h; sample diluted 10-fold) was 0.87 and the Relative late peak area (reverse phase chromatography, 24 h) was 0.67.
With B8 the Relative late peak area (centered, scaled, averaged over 5, 10 and 15 min) was 1.38, the Relative late peak area (centered, scaled, averaged over doses, 24 h; sample diluted 10-fold) was 0.97 and the Relative late peak area (reverse phase chromatography, 24 h) was 0.65.
For B9, the Relative late peak area (centered, scaled, averaged over 5, 10 and 15 min) was 1.3, the Relative late peak area (centered, scaled, averaged over doses, 24 h; sample diluted 10-fold) was 0.61 and the Relative late peak area (reverse phase chromatography, 24 h) was 0.68.
Protein B10 has a Relative late peak area (centered, scaled, averaged over 5, 10 and 15 min) of -0.57 and a Relative late peak area (centered, scaled, averaged over doses, 24 h; sample diluted 1-fold) of 0.66.
B11 was tested, and the Relative late peak area (centered, scaled, averaged over 5, 10 and 15 min) was 0.12 and the Relative late peak area (centered, scaled, averaged over doses, 24 h; sample diluted 2-fold) was 0.73.
B12 gave a Relative late peak area (centered, scaled, averaged over 5, 10 and 15 min) of 1.03 and a Relative late peak area (centered, scaled, averaged over doses, 24 h; sample diluted 10-fold) of 0.62.
Protein B13 has a Relative late peak area (centered, scaled, averaged over 5, 10 and 15 min) of 1.11, a Relative late peak area (centered, scaled, averaged over doses, 24 h; sample diluted 10-fold) of 0.59 and a Relative late peak area (reverse phase chromatography, 24 h) of 0.6.
B14 showed a Relative late peak area (centered, scaled, averaged over 5, 10 and 15 min) of -0.02, a Relative late peak area (centered, scaled, averaged over doses, 24 h; sample diluted 2-fold) of 0.75 and a Relative late peak area (reverse phase chromatography, 24 h) of 0.45.
